28 sequences from the DeepSol protein solubility set can be followed below.

This data set can be described thus: soluble on expression in E. coli; label from the status in PepcDB or PDB records.
On to “RAQRKMSAQSLPAATPPTQKPPRIIRPRPPSRSRAAQSPGPPHNGSSPQELPRNSNDAPTPMCTPIFWEPPAASLKPPALLPPSASRASLDSQTSPDSPSSTPTPSPVSRRSASPEPAPRSPVPPPKPSGSPCTPLLPMAGVLAQNGSASAPGTVRRLAGRFEGGAEGRAQDADAPEPGLQARADVNGEREAPLTGSGSQENGAPDAGLACPPCCPCVCHTTRPGLELRWVPVGGYEEVPRVPRRASPLRTSRSRPHPPSIGHPAVVLTSYRSTAERKLLPLLKPPKPTRVRQDATIFGDPPQPDLDLLSEDGIQTGDSPDEAPQNTPPATVEGREEEGLEVLKEQNWELPLQDEPLYQTYRAAVLSEELWGVGEDGSPSPANAGDAPTFPRPPGPRNTLWQELPAVQASGLLDTLSPQERRMQESLFEVVTSEASYLRSLRLLTDTFVLSQALRDTLTPRDHHTLFSNVQRVQGVSERFLATLLSRVRSSPHISDLCDVVHAHAVGPFSVYVDYVRNQQYQEETYSRLMDTNVRFSAELRRLQSLPKCERLPLPSFLLLPFQRITRLRMLLQNILRQTEEGSSRQENAQKALGAVSKIIERCSAEVGRMKQTEELIRLTQRLRFHKVKALPLVSWSRRLEFQGELTELGCRRGGVLFASRPRFTPLCLLLFSDLLLITQPKSGQRLQVLDYAHRSLVQAQQVPDPSGPPTFRLSLLSNHQGRPTHRLLQASSLSDMQRWLGAFPTPGPLPCSPDTIYEDCDCSQELCSESSAPAKTEGRSLESRAAPKHLHKTPEGWLKGLPGAFPAQLVCEVTGEHERRRHLRQNQRLLEAVGPSSGTPNAPPP”, for which the “soluble on expression in E. coli” value is on record as “soluble”.
The result for “RELHPVAPLLDNLTSALNKVYQRKGVNISLDISPEISFVGEQNDFVEVMGNVLDNACKYCLEFVEISARQTDEHLYIVVEDDGPGIPLSKREVIFDRGQRVDTLRPGQGVGLAVAREITEQYEGKIVAGESMLGGARMEVIFGRQHSAPKDE” reads “soluble”; that for “RFEPSFLDKLFDDEPHVPAPAAMRQLSLEELKNTVARDVEAILNTRIALTEEDLAALPECQRSVLTYGLNDFAGLSLASHYDRTFICKSIQQAIARHEPRLQQVQVTFELNEQSTNALYFAIQALLVVHPAEEPVTFDAMLQPS”, “not soluble”; that for “RGKDITVWFQRLLDRMTDFFSSLSGRRKVCSKPRFRVRRTTNPAAKKSGTDPKIRETKTSIDEILDKIRISGYASLTAEEKRHLFDQSKRL”, “not soluble”.
With “RGKGKDIVMNPLSFGEFVKVARPDIYSKLPRIKRITKVKECSKLRPWREELYDLFILYLKSGGFPRAVKDILEGESIAELHEPTWNSIQKFYGPL” the entry was “not soluble”; with “RGRLRIFFGFAAGVGKTYGMLTEAHELLMMGKHVVVGYIEPHDRPDTNRLLEGLPQIPPKNIFYKQMVLTEPDIDQIIQQKPEIVLIDELAHSNAEGSRNRKRYQDIDELLNAGIDVFTTVNVQHIESLNDIVEEVTGIEVKETVPDTFLRQATIRVIDVEPDELIERLEQGKIYANENAKRALKNFFIPQKLDQLRGLAIQRASDHINRISGKTIG”, “not soluble”.
The result for “RGSHMCDAFVGTWKLVSSENFDDYMKEVGVGFATRKVAGMAKPNMIISVNGDVITIKSESTFKNTEISFILGQEFDEVTADDRKVKSTITLDGGVLVHVQKWDGKSTTIKRKREDDKLVVECVMKGVTSTRVYERA” reads “soluble”.
As for “RHYPEVKKLVLLSTAVNAMEWPQIIENSKQVITEAKEVTLKNSPMFKRYQKKVTETPWTSTLQFKKMVALAKPVFEHIEIPTFIAQGSADPIVPAEKSVNFLMESIPGPKELFILEGSKHVICQDEQADKLFAAVLTFLQK”, the “soluble on expression in E. coli” value was “not soluble”.
“RILYRHSNAMQHEYNQMMQSIDERKQYQVGKIKMGTGDAWWPLFVKQALNEHLTKQPSASTHVEFGNHLGLMDSLINEQIEFFIGHEIVGLSSKCDVTFIPLFQTVDAYFVSSNHPLLGKTVTEEMLHEYPALSVTYDAKKFAHVIDNPIPKQNERERQQLDDRPTYEVDSLLASIDVLKESVAVMSYTRHLQSYLESFGLRCLTMENEPNPGTVGIYRHRRETSESHLDLIAGITQRAKLLN”: the “soluble on expression in E. coli” value is recorded as “not soluble”.
Turning to “RKPEEEPQPIDDSSMQFLLAAKDAVSGGIKQNPDFSAQDLAEKMCMSPSQLNRKLTSVVGCSTIGYIQQIKIKLACKLLADESKNISDISIEAGFSDPAYFSRTFKRYMNCSPSQYRQKLLAMPGSDKETV”, the “soluble on expression in E. coli” value is “not soluble”.
With “RLKALRKEQGKALKKDKKLAEPKARVYVLDFDGDIKASATESMRHEITALLTLATDKDEVVLRLESGGGMVHSYGLASSQLARIRQAGIPLTVCIDKVAASGGYMMACIGNKIISAPFAILGSIGVVAQLPNVNRLLKKHDIDFEVLTAGEYKRTLTVFGENTEKGREKFQQDLDITHDLFKNFVASYRPQLSIDEVATGEVWLGMAAVDKLLVDELKTSDE” the entry was “not soluble”; with “RQEQTETLAEERAETVANLEELNALILQRMRTGILVVDSRQAILLANQAALGLLRQDDVQGASLGRHSPMLMHCMKQWRLNPSLRPPTLKVVPDGPTVQPSFISLNREDDQHVLIFLEDISQIAQQAQQMKLAGLGRLTAGIAHEIRNPLGAISHAAQLLQESEELDAPDRRLTQIIQDQSKRMNLVIENVLQLSRRRQAEPQQLDLKEWLQRFVDEYPGRLRNDSQLHLQLGAGDIQTRMDPHQLNQVLSNLVQNGLRYSAQAHGRGQVWLSLARDPESDLPVLEVIDDGPGVPADKLNNLFEPFFTTESKGTGLGLYLSRELCESNQARIDYRNREEGGGCFRITFA”, “not soluble”.
The result for “RQLTVLERVAPTITGNLENQTTSIGESIEVSCTASGNPPPQIMWFKDNETLVEDSGIVLKDGNRNLTIRRVRKEDEGLYTCQACSVLGCAKVEAFFIIEGAQEKTNLE” reads “soluble”; that for “RRNDDAGMIIPSFGISYDDQYDLIDEIERISKLTDVDEIKKSMDAIDGKKMDFDLGGVVAVGIPNKFLSATVYGKLYTESFVQPNVDTSGADPLTDSYVQGVSIGVAEAGVSLAKYTNFMNQHLSFGITPKLQRIYTYSYATSFKNFDTKDLREHETAETMFNLDAGALWFFGPYRLGISAKNLIGRDVKTKSFQYNTDTIQSYEYSMRPVYTVGAGIVADYFTMSVDYDLNEEKRFSSFDDNTQMIRAGFEIDILRQMALRGGYMKNLARSNDEGTITAGIGLSPLNLIELDISARYTNENAMGASINFLATY”, “not soluble”.
“RRTAEAERDRLNELLQIFTAAVPGVVYAKDLEGRMLVANRGTAELVGKPPEFFIGKTDLEFLDDEQQARVLMETDQRIMQSNVSEQIEEKVNLADGSAAIWLSTKAPLLDRNGDVIGLIGSSIDVT”: the “soluble on expression in E. coli” value is on record as “not soluble”.
On to “RRTTNDGFHLLKAGGSCFALISGTANQVKCYRFRVKKNHRHRYENCTTTWFTVADNGAERQGQAQILITFGSPSQRQDFLKHVPLPPGMNISGFTASLDF”, for which the “soluble on expression in E. coli” value is reported as “soluble”.
As to “RSFGLRASLVDALRKGKIQVAYQPLRVLDSGRMAGVEALARWTYDEVGPISPVTFLGWVEAMGLRQPFTRYIVQAALDGMKTRMAGDAPFYLSINVFPEDLEDESFLDFLTQSVRERELSPGSVVLEVTESAVFSTASPSVLFRRFRAAGFRIFLDDFGVGYSNLGNIIRWEVDGIKLDRIFMQSLGDFDSAAPVLDQVIEMARQLDLHLVIEGIEVRSQADYIFKRAPHAVGQGWLFGRPGPACALPAA”, the “soluble on expression in E. coli” value is given as “not soluble”.
With “RTDTIMVVNVGNHAKKIKMVSFMRDTLINIPGYSYNDNSYDLKLNSAFNLGEQEDHHGAEYVRRALKHNFDIDIKYYVMVDFETFAEAIDTLFPNGVKIDAKFATVGGVAVDSVEVPDDLRMKNGVVPNQTIEVGEQRMDGRTLLNYARFRKDDEGDFGRTVRQQQVMSAVMSQIKD”, the “soluble on expression in E. coli” value is reported as “not soluble”.
With “RTFRHYDAYRSQSGTTGTDAARFILSQSGINDVGVQKISGDLTDNYNGQTKILSLSEATADSTSVAAIGVAAHECGHAVQDHVNYWPMRLRTALVP” the entry was “not soluble”; with “SAAATEHNRPSSGDRNLERRCSPNLSREVLYEIFRSLHTLVGQLDLRDDVVKITIDWNKLQSLSAFQPALLFSALEQHILYLQPFLAKLQSPIKEENTTAVEEIGRTEMGNKNEVNDKFSIGDLQEEEKHKESDLRDVKKTQIHFDPEVVQIKAGKAEIDRRISAFIERKQAEINENNVREFCNVIDCNQENSCARTDAIFTPYPGFKSHVKVSRVVYTYGPQTRPEGIPGSGHKPNSMLRDCGNQAVEERLQNIEAHLRLQTGGPVPRDIYQRIKKLEDKILELEGISPEYFQSVSFSGKRRKVQPPQQNYSLAELDEKISALKQALLRKSREAESMATHHLP”, “not soluble”.
Take “SADAFSLQRVLETFRSSLSENKEVYIKYYIAGWQELVSFMNSLGNVFSFISKDVVSKIQILENFLSGENGSNYVTIQSMVKYELENDLVDLTKRGSHPESGCRTLLRLHRALRWLELFLERLRTSTEDSKTSVMCSDAYNESLANHHPWLIRKAVGVAFCALPGRETFFDVMNAGDHTQVVALLGESLPLIAEVYQITEDLYAKNNLLELP”: the “soluble on expression in E. coli” value was “soluble”.
“SAEDELVEIVPNMNMEQLNFISGDFGRFIPQIPTKVPLWLAVALKRRGKCTFRPPGWMSVDNLTQILEAERESQSTFQALPFSYVEIARLLFDHARDDIPDMYMVRSLVEDIRDVRLHKLETNLGSFQGTSAVKISNVSAMEVNIVRPFVIRALEAFYKHDKPEADVDRDTRSSRQQRETNNEPRRPLRQR”: the “soluble on expression in E. coli” value was “soluble”.
With “SAFQKAASLLGAPIGHDFCVISLSDLMTPWDRIEKRIHAAATADFVTAVYNPKSEGRYWQLYRLKEIFLKERDPETPVGFVRQAGRKEETVTITTLQEFDPEQVDMFTVVLIGNSQSYHQEG” the entry was “soluble”; with “SALTCEVCVLTVPVVSNSTPGSLYVVATPIGNLDDMSVRALKVLREVALIAAEDTRHSARLMQHFGISTPLAACHEHNERDEGSRFITRLLAGDDVALISDAGTPLISDPGYHLVRQARAVGVPVVP”, “not soluble”; with “SANQNFNNSETLGHQGSHVVTLQLRIDGMHCKSCVLNIEENIGQLLGVQSIQVSLENKTAQVKYDPSCTSPVALQRAIEALPPGNFKVSLPDGAEGSGTDHRSSSSHSPGSPPRNQVQGTCSTTLIAIAGMTCASCVHSIEGMISQLEGVQQISVSLAEGTATVLYNPAVISPEELRAAIEDMGFEASVVSESCSTNPLGNH”, “soluble”.
Turning to “SATLKVSDSVPAPSDDAEQLRTAFEGWGTNEDLIISILAHRSAEQRKVIRQAYHETYGEDLLKTLDKELSNDFERAILLWTLEPGERDALLANEATKRWTSSNQVLMEVACTRTSTQLLHARQAYHARYKKSLEEDVAHHTTGDFRKLLVSLVTSYRYEGDEVNMTLAKQEAKLVHEKIKDKHYNDEDVIRILSTRSKAQINATFNRYQDDHGEEILKSLEEGDDDDKFLALLRSTIQCLTRPELYFVDVLRSAINKTGTDEGALTRIVTTRAEIDLKVIGEEYQRRNSIPLEKAITKDTRGDYEKMLVALLGEDDA”, the “soluble on expression in E. coli” value was “soluble”.
The result for “SATPLDNCLRPFPDPMVKVTAETKKISEVSSYVSANNKKNSFWGSGLLYPVALLRCQDCWAGHQTHVLSKEFTSYFSSGAGREAQHQPSAVLGSLIWLRRVYLLRAMVVHGGSQPCQRWLVIRMEVGGHPSFPGHAWLTFHLN” reads “soluble”; that for “SDLCQLFVEQLFGFQDPASLHVLINEIPCARKNLISLRRFSLLIAEPQWFTGSIYDNLVLNHRNVPNKIIIEQLKNVGLADKIIQLPEGLRTILYEWQDVFTLVELTKLMLVRALLLQPELIVIDRAFDILNHQEVNEMMELVLSLKNTLLAIVSQRSDFNYLNNRLVISS”, “not soluble”.
